Measured values from paper PMC3159919 (Structure (London, England : 1993), 2011).

How the values were obtained:
[1] = biological target: the molecule itself; assay: pulse gradient diffusion NMR + NMR spin relaxation
[2] = biological target: the molecule itself; assay: NMR residual dipolar couplings

| Protein | stoichiometry N [1] | binding result [2] |
| --- | --- | --- |
| wild type CCL5 (RANTES) (natural protein, UniProt P13501 24-91, looked up) SPYSSDTTPCCFAYIARPLPRAHIKEYFYTSGKCSNPAVVFVTRKNRQVCANPEKKWVREYINSLEMS | 4 |  |
| CCL5 E66S mutant (natural protein, UniProt P13501 24-91, looked up) SPYSSDTTPCCFAYIARPLPRAHIKEYFYTSGKCSNPAVVFVTRKNRQVCANPEKKWVREYINSLSMS |  | binds |
